According to patent US20190338002A1 (Pieris, published 2019):
Where a chain is given by its changes, count along the chain named.

Columns and labels:
[1] = target: T1, human alpha CGRP (SEQ ID NO: 80) (human, not fully specified); assay: SPR as in Example 5
T1 construct: also called human αCGRP; hαCGRP
T1 peptide: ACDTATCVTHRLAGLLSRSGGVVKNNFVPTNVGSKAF
Experimental: (§1) The Biotin CAPture Kit (GE Healthcare) was used to immobilize biotinylated lipocalin muteins to a chip surface. Muteins were biotinylated using standard NHS chemistry. Undiluted Biotin CAPture Reagent (streptavidin conjugated with ss-DNA oligo) was captured on a Sensor Chip CAP with the pre-immobilized complementary ss-DNA oligo. Thereafter, biotinylated muteins at 1 μg/mL were applied for 300 s at a flow rate of 5 μL/min.
(§2) CGRP species were applied in three concentrations of 30 nM, 3 nM and 0.3 nM at a flow rate of 30 μL/min or in a single concentration of 25 nM per cycle as shown in FIG. 2. The dilutions were injected with association times of 180 s and dissociation times of 5400 sec to obtain ka and kd information. Regeneration of the chip surface was achieved by injecting 6 M Guanidinium-HCl+0.25 M NaOH (120 s) with a flow rate of 10 μL/min. Injection of regeneration solutions was followed by an extra wash step with HBS-EP+(1×; BR-1006-69; GE Healthcare) running buffer and a stabilization period of 120 s.

[2] = target: T2, human beta CGRP (SEQ ID NO: 81) (human, not fully specified); assay: SPR as in Example 5
T2 construct: also called human βCGRP; hβCGRP
T2 peptide: T1 peptide with D3N, V22M, N25S
Experimental: as §1, §2

[3] = target: T1, human alpha CGRP (SEQ ID NO: 80); assay: cell-based or functional assay
[4] = target: T2, human beta CGRP (SEQ ID NO: 81); assay: cell-based or functional assay
[5] = target: T1, human alpha CGRP (SEQ ID NO: 80); assay: cell-based or functional assay
[6] = target: T2, human beta CGRP (SEQ ID NO: 81); assay: cell-based or functional assay
[7] = target: T3, rat alpha CGRP (SEQ ID NO: 82) (rat); assay: cell-based or functional assay
T3 peptide: T1 peptide with A1S, D3N, N25D, K35E

[8] = target: T4, rat beta CGRP (SEQ ID NO: 83) (rat, not fully specified); assay: cell-based or functional assay
T4 peptide: T1 peptide with A1S, D3N, N25D

[9] = target: T1, human alpha CGRP (SEQ ID NO: 80); assay: SPR, 37 C, mutein captured, CGRP analyte
Experimental: as §1, §2
(§3) The data were double-referenced by subtraction of the corresponding signals measured for the control channel (loaded with Biotin CAPture reagent only) and by subtraction of buffer injections from the binding responses. Association rate constant ka and dissociation rate constant kd for the binding reaction were determined using Biacore T200 Evaluation Software V2.0 for data processing and kinetic fitting. The data were globally fit with 1:1 binding model.

[10] = target: T2, human beta CGRP (SEQ ID NO: 81); assay: SPR, 37 C, mutein captured, CGRP analyte
Experimental: as §1, §2, §3

[11] = target: T3, rat alpha CGRP (SEQ ID NO: 82); assay: SPR, 37 C, mutein captured, CGRP analyte
Experimental: as §1, §2, §3

[12] = target: T4, rat beta CGRP (SEQ ID NO: 83); assay: SPR, 37 C, mutein captured, CGRP analyte
Experimental: as §1, §2, §3

B1: cysteine-free lipocalin mutein SEQ ID NO: 29 (designed binder)
chain: QDSTSDLIPAPPLSKVPLQQNFQDNQFQGKWYVVGRAGNDVLREDKDPEKMEATIYELKEDKSYNVTDVGFVQKRLMYVTHTFVPGSQPGEFTLGNIESYPGVTSALVRVVSTDYNQHAMVFVKLVKQNRELFEITLYGRTKELTSELKENFIRFSKSLGLPENHIVFPVPIDQIDGSAWSHPQFEK
notes: biotinylated by NHS chemistry for capture in SPR
[1]
  Kd: 65 pM
[2]
  Kd: 50 pM
[3]
  cAMP assay IC50, SK-N-MC cells: 140 pM
[4]
  cAMP assay IC50, SK-N-MC cells: 910 pM

B2: cysteine-free lipocalin mutein SEQ ID NO: 30 (designed binder)
chain: B1 chain with L76Y
notes: as for B1
[1]
  Kd: 109 pM
[2]
  Kd: 75 pM
[3]
  cAMP assay IC50, SK-N-MC cells: 220 pM
[4]
  cAMP assay IC50, SK-N-MC cells: 1320 pM

B3: lipocalin mutein SEQ ID NO: 19 (designed binder)
chain: QDSTSDLIPAPPLSKVPLQQNFQDNQFHGKWYVVGRAGNDTLREDKDPEKMEATIYELKEDKSYNVTDVGLVQKKCMYVIHTFVPGSQPGEFTLGNIKSYPGVTSALVRVVSTNYNQHAMVFVKLVKQSRELFEITLYGRTKELTSELKENFIRFSKSLGLPENHIVFPVPIDQCIDGSAWSHPQFEK
notes: as for B1
[5]
  IC50, CGRP-induced cAMP production, SK-N-MC cells: 140 pM
[6]
  IC50, CGRP-induced cAMP production, SK-N-MC cells: 210 pM
[7]
  IC50, CGRP-induced cAMP production, L6 cells: 70 pM
[8]
  IC50, CGRP-induced cAMP production, L6 cells: 170 pM
[9]
  Kd: 5 pM
  koff: 1.07e-05 s⁻¹
  kon: 2.26e+06 M⁻¹ s⁻¹
[10]
  Kd: 1 pM
  koff: 6.67e-06 s⁻¹
  kon: 4.56e+06 M⁻¹ s⁻¹
[11]
  Kd: 24 pM
  koff: 3.02e-05 s⁻¹
  kon: 1.25e+06 M⁻¹ s⁻¹
[12]
  Kd: 6 pM
  koff: 1.21e-05 s⁻¹
  kon: 2.01e+06 M⁻¹ s⁻¹

B4: lipocalin mutein SEQ ID NO: 18 (designed binder)
chain: B3 chain with G38A, T41V, E44D, K46N, L71F, I80V, V123F, S129N, I135V
[5]
  IC50, CGRP-induced cAMP production, SK-N-MC cells: 190 pM
[6]
  IC50, CGRP-induced cAMP production, SK-N-MC cells: 290 pM
[7]
  IC50, CGRP-induced cAMP production, L6 cells: 60 pM
[8]
  IC50, CGRP-induced cAMP production, L6 cells: 140 pM

B5: lipocalin mutein SEQ ID NO: 25 (designed binder)
chain: QDSTSDLIPAPPLSKVPLQQNFQDNQFHGKWYVVGWAGNTLLREDKDPIKMQAKIYELKEDRSYNVTWVYFADKKCNYHIETFVPGSQPGEFTLGTIKSYPGETPILVRVVSTNYNQHAMVFFKGVNQNREIFEIILYGRTKELTNELKENFIRFSKSLGLPENHIVFPVPIDQCIDGSAWSHPQFEK
notes: as for B1
[5]
  IC50, CGRP-induced cAMP production, SK-N-MC cells: 150 pM
[6]
  IC50, CGRP-induced cAMP production, SK-N-MC cells: 190 pM
[7]
  IC50, CGRP-induced cAMP production, L6 cells: 60 pM
[8]
  IC50, CGRP-induced cAMP production, L6 cells: 160 pM
[9]
  Kd: 6 pM
  koff: 1.65e-05 s⁻¹
  kon: 2.68e+06 M⁻¹ s⁻¹
[10]
  Kd: 5 pM
  koff: 1.01e-05 s⁻¹
  kon: 2.02e+06 M⁻¹ s⁻¹
[11]
  Kd: 16 pM
  koff: 2.12e-05 s⁻¹
  kon: 1.3e+06 M⁻¹ s⁻¹
[12]
  Kd: 8 pM
  koff: 1.33e-05 s⁻¹
  kon: 1.64e+06 M⁻¹ s⁻¹

B6: lipocalin mutein SEQ ID NO: 27 (designed binder)
chain: B5 chain with K54M, R62K, I136V
notes: as for B1
[1]
  Kd: 38 pM
[2]
  Kd: 7 pM
[5]
  IC50, CGRP-induced cAMP production, SK-N-MC cells: 100 pM
[6]
  IC50, CGRP-induced cAMP production, SK-N-MC cells: 120 pM
[3]
  cAMP assay IC50, SK-N-MC cells: 100 pM
[4]
  cAMP assay IC50, SK-N-MC cells: 120 pM
[9]
  Kd: 18 pM
  koff: 2.59e-05 s⁻¹
  kon: 1.43e+06 M⁻¹ s⁻¹
[10]
  Kd: 11 pM
  koff: 2.26e-05 s⁻¹
  kon: 2.04e+06 M⁻¹ s⁻¹
[11]
  Kd: 38 pM
  koff: 3.1e-05 s⁻¹
  kon: 807000 M⁻¹ s⁻¹
[12]
  Kd: 18 pM
  koff: 2.64e-05 s⁻¹
  kon: 1.5e+06 M⁻¹ s⁻¹

B7: cysteine-free lipocalin mutein SEQ ID NO: 34 (designed binder)
chain: B5 chain with H28Q, K54M, R62K, C76I, I136V, C175E
notes: as for B1
[1]
  Kd: 41 pM
[2]
  Kd: 25 pM
[3]
  cAMP assay IC50, SK-N-MC cells: 120 pM
[4]
  cAMP assay IC50, SK-N-MC cells: 290 pM

B8: lipocalin mutein SEQ ID NO: 26 (designed binder)
chain: B5 chain with N77R, Y100H
notes: as for B1
[5]
  IC50, CGRP-induced cAMP production, SK-N-MC cells: 160 pM
[6]
  IC50, CGRP-induced cAMP production, SK-N-MC cells: 260 pM
[7]
  IC50, CGRP-induced cAMP production, L6 cells: 50 pM
[8]
  IC50, CGRP-induced cAMP production, L6 cells: 160 pM
[9]
  Kd: 13 pM
  koff: 1.99e-05 s⁻¹
  kon: 1.5e+06 M⁻¹ s⁻¹
[10]
  Kd: 3 pM
  koff: 7.6e-06 s⁻¹
  kon: 2.44e+06 M⁻¹ s⁻¹
[11]
  Kd: 15 pM
  koff: 2.01e-05 s⁻¹
  kon: 1.31e+06 M⁻¹ s⁻¹
[12]
  Kd: 6 pM
  koff: 9.98e-06 s⁻¹
  kon: 1.56e+06 M⁻¹ s⁻¹

B9: cysteine-free lipocalin mutein SEQ ID NO: 37 (designed binder)
chain: B5 chain with H28Q, K54M, R62K, C76N, I136V, C175L
notes: as for B1
[1]
  Kd: 55 pM
[2]
  Kd: 23 pM
[3]
  cAMP assay IC50, SK-N-MC cells: 160 pM
[4]
  cAMP assay IC50, SK-N-MC cells: 770 pM

B10: lipocalin mutein SEQ ID NO: 23 (designed binder)
chain: B5 chain with T96L
notes: as for B1
[5]
  IC50, CGRP-induced cAMP production, SK-N-MC cells: 180 pM
[6]
  IC50, CGRP-induced cAMP production, SK-N-MC cells: 200 pM
[7]
  IC50, CGRP-induced cAMP production, L6 cells: 70 pM
[8]
  IC50, CGRP-induced cAMP production, L6 cells: 170 pM
[9]
  Kd: 11 pM
  koff: 1.84e-05 s⁻¹
  kon: 1.64e+06 M⁻¹ s⁻¹
[10]
  Kd: 1 pM
  koff: 4.11e-06 s⁻¹
  kon: 2.84e+06 M⁻¹ s⁻¹
[11]
  Kd: 9 pM
  koff: 1.3e-05 s⁻¹
  kon: 1.39e+06 M⁻¹ s⁻¹
[12]
  Kd: 8 pM
  koff: 1.34e-05 s⁻¹
  kon: 1.74e+06 M⁻¹ s⁻¹

B11: cysteine-free lipocalin mutein SEQ ID NO: 38 (designed binder)
chain: B5 chain with H28Q, K54M, R62K, C76R, I136V, C175V
notes: as for B1
[1]
  Kd: 59 pM
[2]
  Kd: 26 pM
[3]
  cAMP assay IC50, SK-N-MC cells: 210 pM
[4]
  cAMP assay IC50, SK-N-MC cells: 3160 pM

B12: cysteine-free lipocalin mutein SEQ ID NO: 40 (designed binder)
chain: B5 chain with H28Q, K54M, R62K, C76F, I136V, C175D
notes: as for B1
[1]
  Kd: 70 pM
[2]
  Kd: 23 pM
[3]
  cAMP assay IC50, SK-N-MC cells: 180 pM
[4]
  cAMP assay IC50, SK-N-MC cells: 420 pM

B13: lipocalin mutein SEQ ID NO: 24 (designed binder)
chain: B5 chain with D73E
notes: as for B1
[5]
  IC50, CGRP-induced cAMP production, SK-N-MC cells: 120 pM
[6]
  IC50, CGRP-induced cAMP production, SK-N-MC cells: 190 pM
[7]
  IC50, CGRP-induced cAMP production, L6 cells: 70 pM
[8]
  IC50, CGRP-induced cAMP production, L6 cells: 160 pM
[9]
  Kd: 9 pM
  koff: 1.4e-05 s⁻¹
  kon: 1.6e+06 M⁻¹ s⁻¹
[10]
  Kd: 4 pM
  koff: 9.01e-06 s⁻¹
  kon: 2.52e+06 M⁻¹ s⁻¹
[11]
  Kd: 15 pM
  koff: 2.08e-05 s⁻¹
  kon: 1.43e+06 M⁻¹ s⁻¹
[12]
  Kd: 7 pM
  koff: 1.22e-05 s⁻¹
  kon: 1.69e+06 M⁻¹ s⁻¹

B14: cysteine-free lipocalin mutein SEQ ID NO: 36 (designed binder)
chain: B5 chain with H28Q, K54M, R62K, C76R, I136V, C175W
notes: as for B1
[1]
  Kd: 46 pM
[2]
  Kd: 22 pM
[3]
  cAMP assay IC50, SK-N-MC cells: 250 pM
[4]
  cAMP assay IC50, SK-N-MC cells: 810 pM

B15: cysteine-free lipocalin mutein SEQ ID NO: 39 (designed binder)
chain: B5 chain with H28Q, K54M, R62K, C76K, I136V, C175D
notes: as for B1
[1]
  Kd: 62 pM
[2]
  Kd: 34 pM
[3]
  cAMP assay IC50, SK-N-MC cells: 210 pM
[4]
  cAMP assay IC50, SK-N-MC cells: 1030 pM

B16: cysteine-free lipocalin mutein SEQ ID NO: 35 (designed binder)
chain: B5 chain with H28Q, K54M, R62K, C76V, I136V, C175Y
notes: as for B1
[1]
  Kd: 45 pM
[2]
  Kd: 17 pM
[3]
  cAMP assay IC50, SK-N-MC cells: 150 pM
[4]
  cAMP assay IC50, SK-N-MC cells: 270 pM
